The target in test [1] is integrin α2 on HT-1080 cells (human) (UniProt P17301). The test is described as follows: cell-based or functional assay.
For test [2], the target named is integrin α6β1 on bovine adrenal microvascular endothelial (BCE) cells (bovine) (UniProt P53712). The test is described as follows: cell-based or functional assay.
Test [3] concerns the target α6-subunit containing integrins on mouse IBE (Immortomouse brain capillary endothelial) cells. The test is described as follows: cell-based or functional assay.
Test [4] has as its target T1, disulfide-linked β1/γ1 dimer of r-laminin 8 (mouse β1, human γ1) (mouse; human, UniProt P02469 22-1786; P11047 34-1609).
T1 construct: mature; also called covalently associated dimers; the dimers
The test is described as follows: non-reducing SDS-PAGE of anti-FLAG purified r-laminin 8. The source says:
The r-laminin 8 bound to anti-FLAG M2 matrix with high specificity. […] (FIG. 1) Under non-reducing conditions, the purified protein hardly entered the gel, which was to be expected as the predicted molecular weight for the mature trimer is at least 570 kD. A minor fraction of the purified trimer appeared as non-covalently associated (see discussion). In this fraction, the β1 and γ1 chains appeared as covalently associated dimers, whereas the α4 chain was non-covalently associated. Under reducing conditions, the protein appeared as a broad band at around 200 kD, which reacted on Western blots with α4, EHS, γ1, and anti-FLAG antibodies. The predicted molecular weights for mature α4, β1, and γ1 polypeptides are 200, 195, and 174 kD respectively. Laminins are heavily glycosylated, which may account for the slight discrepancy in molecular weight observed in SDS-PAGE.

The source of these data is US6638907 (BIOSTRATUM, dated 2003).

integrin α2 on HT-1080 cells (human), sequence (P17301 30-1181): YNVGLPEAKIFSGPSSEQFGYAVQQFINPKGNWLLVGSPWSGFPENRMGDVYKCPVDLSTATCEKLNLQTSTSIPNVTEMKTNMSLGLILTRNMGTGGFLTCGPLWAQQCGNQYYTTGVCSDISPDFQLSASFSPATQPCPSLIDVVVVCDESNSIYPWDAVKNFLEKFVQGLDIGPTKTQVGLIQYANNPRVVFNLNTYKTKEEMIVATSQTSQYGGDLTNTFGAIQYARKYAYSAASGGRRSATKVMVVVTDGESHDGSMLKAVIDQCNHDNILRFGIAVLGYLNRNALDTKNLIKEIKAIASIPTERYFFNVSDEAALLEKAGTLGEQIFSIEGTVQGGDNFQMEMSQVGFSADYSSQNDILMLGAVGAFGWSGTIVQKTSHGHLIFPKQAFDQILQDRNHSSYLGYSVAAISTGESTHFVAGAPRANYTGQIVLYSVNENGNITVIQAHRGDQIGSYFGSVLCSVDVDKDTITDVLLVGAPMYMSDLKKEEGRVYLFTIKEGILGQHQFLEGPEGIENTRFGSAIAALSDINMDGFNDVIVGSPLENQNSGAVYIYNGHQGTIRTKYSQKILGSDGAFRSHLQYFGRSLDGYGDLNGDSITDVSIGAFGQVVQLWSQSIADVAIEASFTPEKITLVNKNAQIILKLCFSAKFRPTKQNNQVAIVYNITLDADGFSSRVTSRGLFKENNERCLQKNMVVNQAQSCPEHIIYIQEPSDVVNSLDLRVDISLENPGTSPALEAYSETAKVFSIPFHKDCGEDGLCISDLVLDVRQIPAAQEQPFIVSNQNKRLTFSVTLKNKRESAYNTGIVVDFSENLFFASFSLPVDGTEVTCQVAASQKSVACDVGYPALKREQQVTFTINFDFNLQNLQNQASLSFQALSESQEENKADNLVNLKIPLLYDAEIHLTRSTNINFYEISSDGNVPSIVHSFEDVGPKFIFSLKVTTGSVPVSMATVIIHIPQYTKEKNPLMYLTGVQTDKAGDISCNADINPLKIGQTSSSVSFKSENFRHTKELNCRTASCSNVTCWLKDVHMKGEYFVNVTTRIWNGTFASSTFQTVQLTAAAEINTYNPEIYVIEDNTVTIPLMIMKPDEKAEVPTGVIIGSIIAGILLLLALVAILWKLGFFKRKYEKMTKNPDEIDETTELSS
integrin α6β1 on bovine adrenal microvascular endothelial (BCE) cells (bovine), sequence (P53712 21-798): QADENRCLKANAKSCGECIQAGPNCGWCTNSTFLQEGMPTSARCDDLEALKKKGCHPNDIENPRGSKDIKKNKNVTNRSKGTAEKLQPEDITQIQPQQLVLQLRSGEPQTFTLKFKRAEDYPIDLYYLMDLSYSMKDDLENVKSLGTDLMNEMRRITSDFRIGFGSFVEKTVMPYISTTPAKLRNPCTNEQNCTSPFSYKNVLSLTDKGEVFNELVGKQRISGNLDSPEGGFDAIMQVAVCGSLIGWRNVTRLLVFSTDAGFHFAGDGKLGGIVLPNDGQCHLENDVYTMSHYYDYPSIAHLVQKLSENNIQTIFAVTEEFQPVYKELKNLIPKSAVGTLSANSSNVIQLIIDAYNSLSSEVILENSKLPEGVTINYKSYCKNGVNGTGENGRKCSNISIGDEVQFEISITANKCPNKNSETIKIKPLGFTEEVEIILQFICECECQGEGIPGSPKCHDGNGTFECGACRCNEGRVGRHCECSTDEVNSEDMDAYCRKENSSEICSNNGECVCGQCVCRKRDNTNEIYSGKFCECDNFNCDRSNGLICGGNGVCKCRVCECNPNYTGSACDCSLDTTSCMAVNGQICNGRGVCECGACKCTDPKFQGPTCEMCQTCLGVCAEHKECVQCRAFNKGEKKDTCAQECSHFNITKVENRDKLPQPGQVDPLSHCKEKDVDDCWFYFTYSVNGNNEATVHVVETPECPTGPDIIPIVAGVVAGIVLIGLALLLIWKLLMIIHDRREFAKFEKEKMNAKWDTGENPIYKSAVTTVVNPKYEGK

Molecule “collagen type IV from EHS-tumor (from UniProt P02463 28-1669; P08122 26-1707)” returned an HT-1080 cell adhesion to Type IV collagen with anti-integrin α2 mAb, percent of control in test [1] of 50%.

For “recombinant laminin 8 (human α4 chain with C-terminal FLAG epitope, mouse β1 chain, human γ1 chain) (from UniProt Q16363 25-1823; P02469 22-1786; P11047 34-1609)”, the BCE cell adhesion to coated r-laminin 8 with anti-β1 mAb AIIB2, percent blocked in test [2] amounted to 70%. For the same molecule, in test [3], the IBE cell adhesion to coated r-laminin 8 with anti-α6 mAb, percent blocked came out at 60%.

B1: human laminin α4 chain containing a C-terminal FLAG epitope (other)
chain: ASGDDNAFPFDIEGSSAVGRQDPPETSEPRVALGRLPPAAEKCNAGFFHTLSGECVPCDCNGNSNECLDGSGYCVHCQRNTTGEHCEKCLDGYIGDSIRGAPQFCQPCPCPLPHLANFPESCYRKNGAVRCICNENYAGPNCERCAPGYYGNPFLIGSTCKKCDCSGNSDPNLIFEDCDEVTGQCRNCLRNTTGFKCERCAPGYYGDARIAKNCAVCNCGGGPCDSVTGECLEEGFEPPTGCDKCVWDLTDDLRLAALSIEEGKSGVLSVSSGAAAHRHVNEINATIYLLKTKLSERENQYALRKIQINNAENTMKSLLSDVEELVEKENQASRKGQLVQKESMDTINHASQLVEQAHDMRDKIQEINNKMLYYGEEHELSPKEISEKLVLAQKMLEEIRSRQPFFTQRELVDEEADEAYELLSQAESWQRLHNETRTLFPVVLEQLDDYNAKLSDLQEALDQALNYVRDAEDMNRATAARQRDHEKQQERVREQMEVVNMSLSTSADSLTTPRLTLSELDDIIKNASGIYAEIDGAKSELQVKLSNLSNLSHDLVQEAIDHAQDLQQEANELSRKLHSSDMNGLVQKALDASNVYENIVNYVSEANETAEFALNTTDRIYDAVSGIDTQIIYHKDESENLLNQARELQAKAESSSDEAVADTSRRVGGALARKSALKTRLSDAVKQLQAAERGDAQQRLGQSRLITEEANRTTMEVQQATAPMANNLTNWSQNLQHFDSSAYNTAVNSARDAVRNLTEVVPQLLDQLRTVEQKRPASNVSASIQRIRELIAQTRSVASKIQVSMMFDGQSAVEVHSRTSMDDLKAFTSLSLYMKPPVKRPELTETADQFILYLGSKNAKKEYMGLAIKNDNLVYVYNLGTKDVEIPLDSKPVSSWPAYFSIVKIERVGKHGKVFLTVPSLSSTAEEKFIKKGEFSGDDSLLDLDPEDTVFYVGGVPSNFKLPTSLNLPGFVGCLELATLNNDVISLYNFKHIYNMDPSTSVPCARDKLAFTQSRAASYFFDGSGYAVVRDIPRRGKFGQVTRFDIEVRTPADNGLILLMVNGSMFFRLEMRNGYLHVFYDFGFSSGRVHLEDTLKKAQINDAKYHEISIIYHNDKKMILVVDRRHVKSMDNEKMKIPFTDIYIGGAPPEILQSRALRAHLPLDINFRGCMKGFQFQKKDFNLLEQTETLGVGYGCPEDSLISRRAYFNGQSFIASIQKISFFDGFEGGFNFRTLQPNGLLFYYASGSDVFSISLDNGTVIMDVKGIKVQSVDKQYNDGLSHFVISSVSPTRYELIVDKSRVGSKNPTKGKIEQTQASEKKFYFGGSPISAQYANFTGCISNAYFTRVDRDVEVEDFQRYTEKVHTSLYECPIESSPLFLLHKKGKNLSKPKASQNKKGGKSKDAPSWDPVALKLPERNTPRNSHCHLSNSPRAIEHAYQYGGTANSRQEFEHLKGDFGAKSQFSIRLRTRSSHGMIFYVSDQEENDFMTLFLAHGRLVYMFNVGHKKLKIRSQEKYNDGLWHDVIFIRERSSGRLVIDGLRVLEESLPPTEATWKIKGPIYLGGVAPGKAVKNVQINSIYSFSGCLSNLQLNGASITSASQTFSVTPCFEGPMETGTYFSTEGGYVVLDESFNIGLKFEIAFEVRPRSSSGTLVHGHSVNGEYLNVHMKNGQVIVKVNNGIRDFSTSVTPKQSLCDGRWHRITVIRDSNVVQLDVDSEVNHVVGPLNPKPIDHREPVFVGGVPESLLTPRLAPSKPFTGCIRHFVIDGHPVSFSKAALVSGAVSINSCPAADYKDDDDK
notes: The α4 chain alone, as the non-crosslinked partner in the minor fraction of r-laminin 8; also called FLAG-tagged α4 chain
For B1, the binding result in test [4] is given as “binds”.
